Patent US20210101960A1
pKd: −log10 of the molar value.

Legend:
[1] = target: opioid sensor based on the Mu-opioid receptor (cpGFP inserted into the Loop3 of the Mu-opioid receptor) (human); experiment: cell-based or functional assay
[2] = target: opioid sensor based on the Mu-opioid receptor (cpGFP inserted into the Loop3 of the Mu-opioid receptor) (human); experiment: in situ fluorescence titration (drug/response curve, 1 nM to 1 µM DAMGO) on HEK293T cells expressing the opioid sensor

ΔF/F (fluorescence change of the sensor) [1]: 25% | pKd [2]: 7.60
Substance: DAMGO (peptide)
